Laboratory results published in paper PMC8660895, “Hedgehog-Interacting Protein is a multimodal antagonist of Hedgehog signalling” (Nature Communications, 2021).
Several values for one entry are separate records, joined by “and”; a condition that tells them apart may be missing. Equal values may be shown once. Each block holds one molecule with its values, some of them ahead of it.

Legend:
HHIP-C = molecular target: T1, HHIP-C (Homo sapiens, UniProt Q96QV1); assay: X-ray crystallography (molecular replacement); type: binding; settings: co-crystallised with 10 mM SOS, pH 8.5; two SOS molecules per chain, same site as heparin
T1 construct: C-terminal domain (beta-propeller + 2 EGF repeats), residues 213-670, C-terminal His6 tag, HEK293T with kifunensine; EndoF1-deglycosylated for crystals; mostly monomer without GAG, anti-parallel dimer in crystal
T1 sequence (Q96QV1 213-670): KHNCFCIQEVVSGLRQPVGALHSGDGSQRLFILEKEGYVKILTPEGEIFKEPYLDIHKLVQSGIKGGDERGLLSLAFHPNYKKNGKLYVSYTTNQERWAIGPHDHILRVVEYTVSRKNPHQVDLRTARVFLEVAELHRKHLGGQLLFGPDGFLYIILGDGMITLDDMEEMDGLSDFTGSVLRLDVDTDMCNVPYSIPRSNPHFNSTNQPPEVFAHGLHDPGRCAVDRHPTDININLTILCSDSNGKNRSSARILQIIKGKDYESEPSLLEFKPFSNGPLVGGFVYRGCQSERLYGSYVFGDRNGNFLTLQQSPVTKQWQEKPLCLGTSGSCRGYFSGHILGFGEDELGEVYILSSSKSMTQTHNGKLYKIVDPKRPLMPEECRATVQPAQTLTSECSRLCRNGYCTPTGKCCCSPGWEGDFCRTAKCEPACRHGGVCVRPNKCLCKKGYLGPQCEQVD

[1] = molecular target: chondroitin sulphate (CS); assay: SPR; settings: GAGs immobilised on the chip; [HHIP-C] 0-40 µM; parent: 0.7 µM
heparan sulphate (HS) = assay: SPR; settings: GAGs immobilised on the chip; [HHIP-C] 0-40 µM; parent: 0.5 µM
heparin = assay: SPR; settings: GAGs immobilised on the chip; [HHIP-C] 0-40 µM; parent: 0.2 µM
[2] = molecular target: HHIP N-terminal domain (HHIP-N) (human) (UniProt Q96QV1); assay: SEC-MALS; HHIP-N on S200 10/30 column; 10 mM HEPES pH 7.5, 150 mM NaCl; 48–192 μM injected
HHIP-N = molecular target: T2, HHIP-N (Homo sapiens, UniProt Q96QV1); assay: isothermal titration calorimetry; type: binding; settings: pH 7.5, 25 °C, 150 mM NaCl, 3% isopropanol; PEG length and linkage of the conjugate not told
T2 construct: EndoF1-deglycosylated for crystals
T2 sequence (Q96QV1 39-209): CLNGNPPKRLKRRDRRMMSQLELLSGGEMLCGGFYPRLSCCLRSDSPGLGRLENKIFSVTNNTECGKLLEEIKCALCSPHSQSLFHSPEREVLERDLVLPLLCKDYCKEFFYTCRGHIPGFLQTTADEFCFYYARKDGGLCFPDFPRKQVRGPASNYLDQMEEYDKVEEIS

[3] = molecular target: the molecule itself; assay: AUC; sedimentation velocity; HHIP-C alone at 1 mg/mL; 10 mM HEPES pH 7.5, 120 mM NaCl; 20 °C; c(s) distributions

Molecule: O=S(=O)(O)OC[C@H]1O[C@@](COS(=O)(=O)O)(O[C@H]2O[C@H](COS(=O)(=O)O)[C@@H](OS(=O)(=O)O)[C@H](OS(=O)(=O)O)[C@H]2OS(=O)(=O)O)[C@@H](OS(=O)(=O)O)[C@@H]1OS(=O)(=O)O [sucrose octasulphate]
X-ray crystallography (molecular replacement) (HHIP-C): We also determined the crystal structure of a HHIP-C:SOS complex

B1: HHIP C-terminal domain (HHIP-C) (domain or fragment, human, UniProt Q96QV1 213-670, looked up)
chain: T1 sequence (Q96QV1 213-670)
notes: Cloned in pHLsec; For crystallisation the protein was deglycosylated with endoglycosidase F1; also called HHIP-C WT; apo HHIP-C; source: HEK293T, transient transfection with kifunensine, purified from conditioned medium (HisTrap, SEC)
stoichiometry N [3]: 2 and 3

Second part, the molecule after the results:

Kd [1]: 30 µM | Kd (heparan sulphate (HS)): 40 µM | Kd (heparin): 110 µM
Molecule: HHIP C-terminal domain (HHIP-C) (from UniProt Q96QV1) K277E; R328E; R350E; K569E; R610E; R613E

stoichiometry N [2]: 2
Molecule: HHIP N-terminal domain (HHIP-N) (from UniProt Q96QV1 39-209) (domain or fragment)

Kd (HHIP-N): 23 µM
Molecule: PEG-cholesterol
